Results taken from the supplement of paper PMC11246515.
± gives the standard deviation of the averaged measurements.

Experiment: total protein half-life in vivo (active degradation + dilution); higher = more stable protein
[1] = E. coli NCM3722 delta-clpP delta-lon delta-hslV, growth: N-lim chemostat, doubling time 6 h
[2] = E. coli NCM3722 delta-clpP, growth: N-lim chemostat, doubling time 6 h
[3] = wild type E. coli NCM3722, growth: C-lim chemostat, doubling time 3 h
[4] = wild type E. coli NCM3722, growth: C-lim chemostat, doubling time 6 h
[5] = wild type E. coli NCM3722, growth: C-lim chemostat, doubling time 12 h
[6] = wild type E. coli NCM3722, growth: N-lim chemostat, doubling time 12 h
[7] = wild type E. coli NCM3722, growth: P-lim chemostat, doubling time 6 h
[8] = wild type E. coli NCM3722, growth: P-lim chemostat, doubling time 12 h
[9] = E. coli NCM3722 delta-lon, growth: N-lim chemostat, doubling time 6 h
[10] = E. coli NCM3722 delta-smpB, growth: N-lim chemostat, doubling time 6 h
[11] = wild type E. coli NCM3722, growth: N-lim chemostat, doubling time 6 h
[12] = E. coli NCM3722 delta-hslV, growth: N-lim chemostat, doubling time 6 h

Sequence | total protein half-life in vivo [1] [h] | total protein half-life in vivo [2] [h] | total protein half-life in vivo [3] [h] | total protein half-life in vivo [4] [h] | total protein half-life in vivo [5] [h] | total protein half-life in vivo [6] [h] | total protein half-life in vivo [7] [h] | total protein half-life in vivo [8] [h] | total protein half-life in vivo [9] [h] | total protein half-life in vivo [10] [h] | total protein half-life in vivo [11] [h] | total protein half-life in vivo [12] [h]
MKEKTIIIVGGGQAAAMAAASLRQQGFTGELHLFSDERHLPYERPPLSKSMLLEDSPQLQQVLPANWWQENNVHLHSGVTIKTLGRDTRELVLTNGESWHWDQLFIATGAAARPLPLLDALGERCFTLRHAGDAARLREVLQPERSVVIIGAGTIGLELAASATQRRCKVTVIELAATVMGRNAPPPVQRYLLQRHQQAGVRILLNNAIEHVVDGEKVELTLQSGETLQADVVIYGIGISANEQLAREANLDTANGIVIDEACRTCDPAIFAGGDVAITRLDNGALHRCESWENANNQAQIAAAAMLGLPLPLLPPPWFWSDQYSDNLQFIGDMRGDDWLCRGNPETQKAIWFNLQNGVLIGAVTLNQGREIRPIRKWIQSGKTFDAKLLIDENIALKSL | 5.74 ± 1.6 | 1.04 | 3.07 | 2.51 ± 0.54 | 2.78 ± 0.14 | 1.3 | 1.03 | 2.31 ± 0.41 |  |  |  | 
MTEPHVAVLSQVQQFLDRQHGLYIDGRPGPAQSEKRLAIFDPATGQEIASTADANEADVDNAVMSAWRAFVSRRWAGRLPAERERILLRFADLVEQHSEELAQLETLEQGKSIAISRAFEVGCTLNWMRYTAGLTTKIAGKTLDLSIPLPQGARYQAWTRKEPVGVVAGIVPWNFPLMIGMWKVMPALAAGCSIVIKPSETTPLTMLRVAELASEAGIPDGVFNVVTGSGAVCGAALTSHPHVAKISFTGSTATGKGIARTAADHLTRVTLELGGKNPAIVLKDADPQWVIEGLMTGSFLNQGQVCAASSRIYIEAPLFDTLVSGFEQAVKSLQVGPGMSPVAQINPLVSRAHCDKVCSFLDDAQAQQAELIRGSNGPAGEGYYVAPTLVVNPDAKLRLTREEVFGPVVNLVRVADGEEALQLANDTEYGLTASVWTQNLSQALEYSDRLQAGTVWVNSHTLIDANLPFGGMKQSGTGRDFGPDWLDGWCETKSVCVRY | 4.33 |  | 3.12 ± 0.38 | 5.23 ± 0.96 | 8.67 ± 0.33 |  | 5.34 ± 0.17 | 10.3 ± 0.53 |  |  |  | 
MALLPDKEKLLRNFLRCANWEEKYLYIIELGQRLPELRDEDRSPQNSIQGCQSQVWIVMRQNAQGIIELQGDSDAAIVKGLIAVVFILYDQMTPQDIVNFDVRPWFEKMALTQHLTPSRSQGLEAMIRAIRAKAAALS | 4.3 ± 0.53 | 3.71 ± 0.31 | 3.39 | 4.57 ± 0.48 | 9.46 ± 0.25 | 5.75 ± 0.11 | 4.85 ± 0.13 | 10.1 ± 1.2 | 5.07 ± 1.1 | 4.012 ± 0.015 | 3.509 ± 0.018 | 
MKIVEVKHPLVKHKLGLMREQDISTKRFRELASEVGSLLTYEATADLETEKVTIEGWNGPVEIDQIKGKKITVVPILRAGLGMMDGVLENVPSARISVVGMYRNEETLEPVPYFQKLVSNIDERMALIVDPMLATGGSVIATIDLLKKAGCSSIKVLVLVAAPEGIAALEKAHPDVELYTASIDQGLNEHGYIIPGLGDAGDKIFGTK [P0A8F0] | 5.6625 ± 0.0038 | 5.17 ± 0.33 | 3.05 ± 0.29 | 5.86 ± 0.36 | 10.9 ± 1.4 | 12.1 ± 2.8 | 6.55 ± 0.34 | 11.3 ± 0.98 | 5.36 ± 0.61 | 5.3 ± 0.15 | 5.71 ± 0.23 | 5.83 ± 0.94
MRYPVTLTPAPEGGYMVSFVDIPEALTQGETVAEAMEAAKDALLTAFDFYFEDNELIPLPSPLNSHDHFIEVPLSVASKVLLLNAFLQSEITQQELARRIGKPKQEITRLFNLHHATKIDAVQLAAKALGKELSLVMV |  |  |  |  |  |  | 1.45 | 3.2 ± 0.94 |  |  |  | 
MNNSRLFRLSRIVIALTAASGMMVNTANAKEEAKAATQYTQQVNQNYAKSLPFSDRQDFDDAQRGFIAPLLDEGILRDANGKVYYRADDYKFDINAAAPETVNPSLWRQSQINGISGLFKVTDKMYQVRGQDISNITFVEGEKGIIVIDPLVTPPAAKAALDLYFQHRPQKPIVAVIYTHSHTDHYGGVKGIISEADVKSGKVQVIAPAGFMDEAISENVLAGNIMSRRALYSYGLLLPHNAQGNVGNGLGVTLATGDPSIIAPTKTIVRTGEKMIIDGLEFDFLMTPGSEAPAEMHFYIPALKALCTAENATHTLHNFYTLRGAKTRDTSKWTEYLNETLDMWGNDAEVLFMPHTWPVWGNKHINDYIGKYRDTIKYIHDQTLHLANQGYTMNEIGDMIKLPPALANNWASRGYYGSVSHNARAVYNFYLGYYDGNPANLHPYGQVEMGKRYVQALGGSARVINLAQEANKQGDYRWSAELLKQVIAANPGDQVAKNLQANNFEQLGYQAESATWRGFYLTGAKELREGVHKFSHGTTGSPDTIRGMSVEMLFDFMAVRLDSAKAAGKNISLNFNMSNGDNLNLTLNDSVLNYRKTLQPQADASFYISREDLHAVLTGQAKMADLVKAKKAKIIGNGAKLEEIIACLDNFDLWVNIVTPN |  |  |  |  | 11.5 | 11.3 |  |  |  |  |  | 
MHGNSEMQKINQTSAMPEKTDVHWSGRFSVAPMLDWTDRHCRYFLRLLSRNTLLYTEMVTTGAIIHGKGDYLAYSEEEHPVALQLGGSDPAALAQCAKLAEARGYDEINLNVGCPSDRVQNGMFGACLMGNAQLVADCVKAMRDVVSIPVTVKTRIGIDDQDSYEFLCDFINTVSGKGECEMFIIHARKAWLSGLSPKENREIPPLDYPRVYQLKRDFPHLTMSINGGIKSLEEAKAHLQHMDGVMVGREAYQNPGILAAVDREIFGSSDTDADPVAVVRAMYPYIERELSQGTYLGHITRHMLGLFQGIPGARQWRRYLSENAHKAGADINVLEHALKLVADKR | 4.26 ± 0.35 | 4.49 ± 1.1 | 3.01 ± 0.14 | 5.432 ± 0.022 | 9.77 ± 1.5 | 6.88 ± 0.21 | 6.57 ± 1.6 | 10.9 ± 1.2 | 4.31 ± 0.14 | 4.07 ± 0.18 | 4.2 ± 0.5 | 4.51 ± 0.81
MATAKKITIHDVALAAGVSVSTVSLVLSGKGRISTATGERVNAAIEELGFVRNRQASALRGGQSGVIGLIVRDLSAPFYAELTAGLTEALEAQGRMVFLLHGGKDGEQLAQRFSLLLNQGVDGVVIAGAAGSSDDLRRMAEEKAIPVIFASRASYLDDVDTVRPDNMQAAQLLTEHLIRNGHQRIAWLGGQSSSLTRAERVGGYCATLLKFGLPFHSDWVLECTSSQKQAAEAITALLRHNPTISAVVCYNETIAMGAWFGLLKAGRQSGESGVDRYFEQQVSLAAFTDATPTTLDDIPVTWASTPARELGITLADRMMQKITHEETHSRNLIIPARLIAAK | 6.29 ± 0.064 | 6.58 ± 1.8 | 2.7 ± 0.15 | 5.25 ± 0.078 | 8.757 ± 0.013 | 8.39 ± 2.1 | 4.36 ± 0.092 | 9.01 ± 0.16 | 5.27 ± 0.39 | 4.45 ± 0.36 | 4.64 ± 0.33 | 4.56
